Laboratory results: patent US20240344124, “Quantum Dot-Enrichment of CRISPR-Associated (Cas) Proteins for Environmental RNA Enrichment” (The Government of the United States of America, as …, published 2024)

Biological target: T1, dLwaCas13a (LwaC2c2 R474A/R1046A double mutant); the text does not say whether the double or the quad mutant … (Leptotrichia wadei)
T1 chain: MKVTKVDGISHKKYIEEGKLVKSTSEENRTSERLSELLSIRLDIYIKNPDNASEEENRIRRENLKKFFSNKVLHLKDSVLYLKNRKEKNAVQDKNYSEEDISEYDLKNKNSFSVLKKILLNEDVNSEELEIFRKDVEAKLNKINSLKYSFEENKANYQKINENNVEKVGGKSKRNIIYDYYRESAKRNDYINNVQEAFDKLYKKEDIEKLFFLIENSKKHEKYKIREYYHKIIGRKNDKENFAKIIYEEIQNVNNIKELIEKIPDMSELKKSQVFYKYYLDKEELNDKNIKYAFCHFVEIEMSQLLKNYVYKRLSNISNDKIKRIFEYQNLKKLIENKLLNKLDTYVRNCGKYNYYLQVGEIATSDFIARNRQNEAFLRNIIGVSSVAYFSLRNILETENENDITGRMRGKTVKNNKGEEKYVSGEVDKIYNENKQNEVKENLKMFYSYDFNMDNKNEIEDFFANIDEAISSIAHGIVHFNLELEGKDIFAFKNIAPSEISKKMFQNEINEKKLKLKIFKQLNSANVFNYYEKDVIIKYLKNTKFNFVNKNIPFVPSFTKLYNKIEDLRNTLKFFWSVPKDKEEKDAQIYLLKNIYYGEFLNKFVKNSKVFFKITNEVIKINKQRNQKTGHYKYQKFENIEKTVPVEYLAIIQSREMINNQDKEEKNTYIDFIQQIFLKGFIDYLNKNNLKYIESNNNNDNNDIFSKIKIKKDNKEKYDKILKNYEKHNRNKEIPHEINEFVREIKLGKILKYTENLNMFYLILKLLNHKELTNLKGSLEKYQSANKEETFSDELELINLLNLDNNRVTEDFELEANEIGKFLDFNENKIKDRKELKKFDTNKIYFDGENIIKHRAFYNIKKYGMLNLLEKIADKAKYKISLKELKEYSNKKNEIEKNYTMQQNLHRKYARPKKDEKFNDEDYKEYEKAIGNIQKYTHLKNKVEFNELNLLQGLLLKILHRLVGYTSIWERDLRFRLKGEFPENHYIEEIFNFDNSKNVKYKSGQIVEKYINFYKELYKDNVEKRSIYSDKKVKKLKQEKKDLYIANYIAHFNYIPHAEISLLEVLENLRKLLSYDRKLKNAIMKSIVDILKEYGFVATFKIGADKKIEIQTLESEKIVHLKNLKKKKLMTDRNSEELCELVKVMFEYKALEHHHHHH
Test: pulldown; […]; 50 mM Tris pH 8, NaCl, 10 mM MgCl2, 37 C; […]
Details: tags: polyhistidine tag; GenScript

B1: cr7 crRNA ; shortened lcrV target RNA (237 nt) (ssRNA ; ssRNA)
RNA 1: GGGGAUUUAGACUACCCCAAAAACGAAGGGGACUAAAACAAUAUCUAUAUUUUUAUCUUUGACUAAC
RNA 2: AUUGAGGAUCUAGAAAAAGUUAGGGUGGAACAACUUACUGGUCAUGGUUCUUCAGUUUUAGAAGAAUUGGUUCAGUUAGUCAAAGAUAAAAAUAUAGAUAUUUCCAUUAAAUAUGAUCCCAGAAAAGAUUCGGAGGUUUUUGCCAAUAGAGUAAUUACUGAUGAUAUCGAAUUGCUCAAGAAAAUCCUAGCUUAUUUUCUACCCGAGGAUGCCAUUCUUAAAGGCGGUCAUUAUGAC
B1: binds.
